Data reported in paper PMC8336959 (Science Advances, 2021).
Square brackets hold non-standard residues; d marks the D form. Ends that are not written are not given here. pY = N[C@@H](Cc1ccc(OP(=O)(O)O)cc1)C(=O)O; pS = N[C@@H](COP(=O)(O)O)C(=O)O

B1: RPA70 N-terminal OB1 domain (RPA70N, residues 1 to 120), Atto488-labeled (domain or fragment)
chain: MVGQLSEGAIAAIMQKGDTNIKPILQVINIRPITTGNSPPRYRLLMSDGLNTLSSFMLATQLNPLVEEEQLSSNCVCQIHRFIVNTLKDGRRVVILMELEVLKSAEAVGVKIGNPVPYNE
modifications: Atto488 label

Legend:
Experiment in all cases: MST
[1] = molecular target: Atto488-labeled GRB2-SH2 domain (UniProt P62993 60-152, Atto488 label)
[2] = molecular target: GRB2, wild type, bacterially expressed and purified (UniProt P62993 1-217)
[3] = molecular target: B1

Sequence of GRB2, wild type, bacterially expressed and purified (P62993 whole entry): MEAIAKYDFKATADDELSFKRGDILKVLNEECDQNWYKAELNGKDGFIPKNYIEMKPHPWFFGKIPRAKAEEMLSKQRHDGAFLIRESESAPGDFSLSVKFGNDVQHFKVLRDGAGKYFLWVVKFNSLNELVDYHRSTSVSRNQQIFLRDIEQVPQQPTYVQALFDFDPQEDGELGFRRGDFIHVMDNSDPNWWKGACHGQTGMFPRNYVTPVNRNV
Sequence of Atto488-labeled GRB2-SH2 domain (P62993 60-152): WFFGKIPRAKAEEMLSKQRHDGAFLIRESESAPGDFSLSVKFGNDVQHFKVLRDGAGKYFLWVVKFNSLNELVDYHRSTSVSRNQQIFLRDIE

Binder	Kd [1]	binding result [2]	further results
FLPVPE[pY]INQSVPKR [Phosphorylated EGFR synthetic peptide]	7.2 ± 2 µM		
PWVNYQDGNLN [MRE11 peptide]	33 ± 15 µM		
PWVN[pY]QDGNLN [Tyrosine-phosphorylated MRE11 peptide]		binds	
KYDFKATADDELSFKRG [GRB2 OB1 peptide]			binding result [3]: binds
B1		binds	
PSGGKKATQA[pS]QE[pY] [Dual-phosphorylated H2AX (pH2AX) peptide]		binds	
